According to patent US20110305629A1 (published 2011):

T1: soluble αvβ6 (UniProt P06756 31-992; P18564 22-709, Biotinylated in the blocking ELISA of FIG. 7; the biotin sites are not stated.)
T1 alpha: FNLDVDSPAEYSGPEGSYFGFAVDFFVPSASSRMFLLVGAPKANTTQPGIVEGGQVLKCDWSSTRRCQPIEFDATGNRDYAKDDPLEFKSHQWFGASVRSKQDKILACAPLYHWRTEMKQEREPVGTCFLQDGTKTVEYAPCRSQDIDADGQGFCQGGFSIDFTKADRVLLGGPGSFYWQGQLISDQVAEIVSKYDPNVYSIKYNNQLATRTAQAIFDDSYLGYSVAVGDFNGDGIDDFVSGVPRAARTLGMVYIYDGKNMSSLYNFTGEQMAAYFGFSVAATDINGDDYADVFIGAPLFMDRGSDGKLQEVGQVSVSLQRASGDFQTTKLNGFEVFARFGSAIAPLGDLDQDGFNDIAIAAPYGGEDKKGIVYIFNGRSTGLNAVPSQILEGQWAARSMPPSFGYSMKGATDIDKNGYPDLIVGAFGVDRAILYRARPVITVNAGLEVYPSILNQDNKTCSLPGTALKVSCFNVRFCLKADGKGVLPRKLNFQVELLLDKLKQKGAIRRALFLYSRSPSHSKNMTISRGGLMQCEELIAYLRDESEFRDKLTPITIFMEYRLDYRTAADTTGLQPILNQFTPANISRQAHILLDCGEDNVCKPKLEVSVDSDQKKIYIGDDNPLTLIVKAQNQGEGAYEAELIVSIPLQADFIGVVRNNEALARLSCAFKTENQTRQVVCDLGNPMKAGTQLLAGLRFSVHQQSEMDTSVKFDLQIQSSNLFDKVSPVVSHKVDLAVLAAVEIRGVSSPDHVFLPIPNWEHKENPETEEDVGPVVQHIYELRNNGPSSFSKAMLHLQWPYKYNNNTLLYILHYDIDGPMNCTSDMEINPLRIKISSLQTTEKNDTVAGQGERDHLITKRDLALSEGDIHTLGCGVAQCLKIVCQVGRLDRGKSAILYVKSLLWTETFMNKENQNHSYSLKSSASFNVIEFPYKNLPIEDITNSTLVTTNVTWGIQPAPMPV
T1 beta: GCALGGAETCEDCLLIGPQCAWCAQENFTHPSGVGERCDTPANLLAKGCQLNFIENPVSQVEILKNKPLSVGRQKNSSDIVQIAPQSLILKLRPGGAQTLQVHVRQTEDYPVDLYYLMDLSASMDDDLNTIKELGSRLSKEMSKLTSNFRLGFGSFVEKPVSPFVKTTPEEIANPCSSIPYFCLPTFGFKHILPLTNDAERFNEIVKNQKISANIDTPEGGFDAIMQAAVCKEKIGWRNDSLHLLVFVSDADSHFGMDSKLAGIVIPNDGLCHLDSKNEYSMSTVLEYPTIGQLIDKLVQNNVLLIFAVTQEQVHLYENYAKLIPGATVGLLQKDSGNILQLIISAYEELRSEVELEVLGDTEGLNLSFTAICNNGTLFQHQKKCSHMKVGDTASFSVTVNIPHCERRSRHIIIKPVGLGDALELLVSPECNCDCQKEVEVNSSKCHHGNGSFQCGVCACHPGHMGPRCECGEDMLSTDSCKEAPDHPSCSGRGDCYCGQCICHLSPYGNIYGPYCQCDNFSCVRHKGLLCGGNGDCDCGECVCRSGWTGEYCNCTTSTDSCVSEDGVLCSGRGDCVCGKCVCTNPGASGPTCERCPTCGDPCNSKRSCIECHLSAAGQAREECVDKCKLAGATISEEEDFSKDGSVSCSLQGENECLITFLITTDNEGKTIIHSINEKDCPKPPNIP


Biological target: T1, soluble αvβ6
Assay: binding ELISA

Row | EC50 [µg/mL] | Binder
1 | 0.036 | chimeric 3G9 antibody (ch3G9) (antibody, V domains shown) VH: EVMLVESGGGLVQPGGSLRLSCAASGFTFSRYVMSWVRQAPGKGLEWVASISSGGRMYYPDTVKGRFTISRDSAKNSLYLQMNSLRAEDTAVYYCARGSIYDGYYVFPYWGQGTLVTVSS VL: DIVLTQSPATLSLSPGERATLSCRASQSVSTSSYSYMYWYQQKPGQAPRFLIKYASNLESGIPARFSGSGSGTDFTLTISSLEPEDFAVYYCQHNWEIPFTFGGGTKVEIK
2 | 0.043 | chimeric 3G9 antibody containing a N to S substitution within the N-linked glycosylation site in the first CDR of the light chain (ch3G9S) (antibody, V domains shown) VH: EVMLVESGGGLVQPGGSLRLSCAASGFTFSRYVMSWVRQAPGKGLEWVASISSGGRMYYPDTVKGRFTISRDSAKNSLYLQMNSLRAEDTAVYYCARGSIYDGYYVFPYWGQGTLVTVSS VL: DIVLTQSPATLSLSPGERATLSCRASQSVSTSSYSYMYWYQQKPGQAPRFLIKYASNLESGIPARFSGSGSGTDFTLTISSLEPEDFAVYYCQHNWEIPFTFGGGTKVEIK
